According to the RNAGym collection of RNA variant scans (doi:10.1073/pnas.2313332121):

B1: TPR t1 (parent)
chain: GACCAAUCUGCCCUCAGAGCUCGAGAACAUCUUCGGAUGCAGAGGAGGCAGGCUUCGGUGGCGCGAUAGCGCCAACGUCCUCAACCUCCAAUGCAUCCCACCACAUGAUGAUGCCUGAAGAGCCUUGGUUUUUUG

Variants of: B1
Experiment: polymerase ribozyme fitness, log enrichment relative to wild type (log ratio); higher = more active; in vitro selection for triplet polymerase activity
Method in brief: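 Mutant libraries for each subunit of a heterodimeric triplet polymerase ribozyme were made by PCR and then transcribed. Each library underwent one round of in vitro selection in triplicate: annealing with a biotinylated primer, the partner subunit and triplets, frozen incubation at −7 °C, gel excision of extended constructs, streptavidin-bead capture and RT-PCR. Input and output libraries were Illumina-sequenced, and only genotypes with ≥10 input reads and ≥1 read per output were kept. Fitness is the logarithm, base 2, of genotype enrichment over wild-type enrichment, computed from inverse-variance-weighted replicate averages.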

Row | Variant | polymerase ribozyme fitness (log ratio)
1 | G63C C94A U112A U116A | -2.14
2 | C64U C115A | -0.337
3 | A41C G63A G69U G93C C101A | -4.78
4 | U134A | 0.465
5 | C114U C124G | -0.85
6 | C64U C82A C124A | 1.31
7 | C49G A121C | 0.434
8 | A84U C101G U125G | -2.42
9 | C11G U78G A91G A95C G135U | -1.3
10 | C8G C12G G17C C82A C102U C104A | -5.44
11 | A29U G44A G110A U125A | -3.17
12 | U7A U9G A46C C85G | -1.96
13 | C22G G36U | -4.91
14 | C22A G60A | -4.26
15 | A95U U132A | -1.52
16 | A66G C124G G128A | -1.05
17 | A41G U112A | 1.42
18 | C8U C22G G39C | -4.04
19 | G47A U87A | -0.715
20 | C72U U106A | 0.0802
21 | C15A G63U | -3.03

Row | Variant | polymerase ribozyme fitness (log ratio)
22 | C28A C124U | -2.12
23 | C97A G120C | -4.1
24 | C3G C11A C115U | -6.42
25 | G47A U112G G117A | -3.86
26 | U112C G127A | 0.907
27 | C79U A111U A121U | -3.62
28 | G57U G110A | -1.16
29 | G39A G61U A100C C123A | -1.14
30 | G17U G69U | -0.0598
31 | C62G U126C | -2.05
32 | A90U C98G C114G G117C C123U U126C | -5.73
33 | A90C A95G | -0.983
34 | C12G G45A A84C U106G | -1.76
35 | G61U C101U | 0.0554
36 | A50U C62U U109A A111C G120U A121G | -7.17
37 | A37C G120A G122A | -1.07
38 | A18G C72A | -2.98
39 | C28U C72U U112A G122A U129A | -4.79
40 | G45A G71C C101A C115U G127C | -5.44
41 | C53G C102U U112A G120U | -4.93
42 | C73A U112A A121U U125A | 1.73

Row | Variant | polymerase ribozyme fitness (log ratio)
43 | A46U G47A | -2.18
44 | C53A C72A | -1.56
45 | U9A G93A C115U | -1.19
46 | G63A G117A | -2.26
47 | G10A C34A C40U G71C G77U C88A G113A | -6.08
48 | U30C G61A | -2.02
49 | C11G G25U | -4.49
50 | A5U G60A U78A C97U | -1.08
51 | G44C G58A A91G U92C | -3.08
52 | A84C U130A | -0.44
53 | A27G U33G G63C G120A C123U | -5.79
54 | C22G C104A | -5.33
55 | C99A | -6.24
56 | C31U G44C G60A | -5.87
57 | A74U A118U | -0.576
58 | C49U C72U A75U U106G | -3.16
59 | C20U G117U A119U | -4.12
60 | U87G | 0.133
61 | A16G C40U A43U C72G | -3.42
62 | A27C C56U | -2.85
63 | A16C G45C G63A A100C U112C U129G | -2.73

Row | Variant | polymerase ribozyme fitness (log ratio)
64 | C56A C114A G135A | -2.55
65 | A6C G107U | -4.64
66 | C22A U54C | -4.71
67 | G39C U59A C104A | -2.48
68 | G19U A24G U38C G61U G113A | -3.85
69 | G36A U78A C82G U125G | -2.73
70 | C72G G93U | -1.16
71 | G19A U87G U109G | -4.8
72 | C72U U96C | -1.2
73 | G36U U54A C72A | -0.869
74 | G45C C62A A83G A84U | -3.77
75 | U54G C89A U106A | -2.52
76 | C12A C72G U133C | -1.17
77 | C8U C11G C13U C20A G69C C82A A83C C98U U112G | -4.19
78 | C4A G39C A75G C114G G120A | -5.14
79 | A6C C97U | -1.01
80 | C79G G122A | -2.11
81 | A50U C64U A105C A118U | -4.51
82 | C40G A41U G45A G60A A91U | -4.96
83 | G39C C56G C72U | -1.49
84 | G122A U130C | -0.597
